# Measurements published in IntAct's records for PubMed 15208391.
# B1: Cullin-1 (Arabidopsis thaliana (Mouse-ear cress)), Q94AH6 (parent)
# chain: MERKTIDLEQGWDYMQTGITKLKRILEGLNEPAFDSEQYMMLYTTIYNMCTQKPPHDYSQQLYDKYREAFEEYINSTVLPALREKHDEFMLRELFKRWSNHKVMVRWLSRFFYYLDRYFIARRSLPPLNEVGLTCFRDLVYNELHSKVKQAVIALVDKEREGEQIDRALLKNVLDIYVEIGMGQMERYEEDFESFMLQDTSSYYSRKASSWIQEDSCPDYMLKSEECLKKERERVAHYLHSSSEPKLVEKVQHELLVVFASQLLEKEHSGCRALLRDDKVDDLSRMYRLYHKILRGLEPVANIFKQHVTAEGNALVQQAEDTATNQVANTASVQEQVLIRKVIELHDKYMVYVTECFQNHTLFHKALKEAFEIFCNKTVAGSSSAELLATFCDNILKKGGSEKLSDEAIEDTLEKVVKLLAYISDKDLFAEFYRKKLARRLLFDRSANDDHERSILTKLKQQCGGQFTSKMEGMVTDLTLARENQNSFEDYLGSNPAANPGIDLTVTVLTTGFWPSYKSFDINLPSEMIKCVEVFKGFYETKTKHRKLTWIYSLGTCHINGKFDQKAIELIVSTYQAAVLLLFNTTDKLSYTEILAQLNLSHEDLVRLLHSLSCAKYKILLKEPNTKTVSQNDAFEFNSKFTDRMRRIKIPLPPVDERKKVVEDVDKDRRYAIDAAIVRIMKSRKVLGHQQLVSECVEQLSRMFKPDIKAIKKRMEDLITRDYLERDKENPNMFRYLA
# partner: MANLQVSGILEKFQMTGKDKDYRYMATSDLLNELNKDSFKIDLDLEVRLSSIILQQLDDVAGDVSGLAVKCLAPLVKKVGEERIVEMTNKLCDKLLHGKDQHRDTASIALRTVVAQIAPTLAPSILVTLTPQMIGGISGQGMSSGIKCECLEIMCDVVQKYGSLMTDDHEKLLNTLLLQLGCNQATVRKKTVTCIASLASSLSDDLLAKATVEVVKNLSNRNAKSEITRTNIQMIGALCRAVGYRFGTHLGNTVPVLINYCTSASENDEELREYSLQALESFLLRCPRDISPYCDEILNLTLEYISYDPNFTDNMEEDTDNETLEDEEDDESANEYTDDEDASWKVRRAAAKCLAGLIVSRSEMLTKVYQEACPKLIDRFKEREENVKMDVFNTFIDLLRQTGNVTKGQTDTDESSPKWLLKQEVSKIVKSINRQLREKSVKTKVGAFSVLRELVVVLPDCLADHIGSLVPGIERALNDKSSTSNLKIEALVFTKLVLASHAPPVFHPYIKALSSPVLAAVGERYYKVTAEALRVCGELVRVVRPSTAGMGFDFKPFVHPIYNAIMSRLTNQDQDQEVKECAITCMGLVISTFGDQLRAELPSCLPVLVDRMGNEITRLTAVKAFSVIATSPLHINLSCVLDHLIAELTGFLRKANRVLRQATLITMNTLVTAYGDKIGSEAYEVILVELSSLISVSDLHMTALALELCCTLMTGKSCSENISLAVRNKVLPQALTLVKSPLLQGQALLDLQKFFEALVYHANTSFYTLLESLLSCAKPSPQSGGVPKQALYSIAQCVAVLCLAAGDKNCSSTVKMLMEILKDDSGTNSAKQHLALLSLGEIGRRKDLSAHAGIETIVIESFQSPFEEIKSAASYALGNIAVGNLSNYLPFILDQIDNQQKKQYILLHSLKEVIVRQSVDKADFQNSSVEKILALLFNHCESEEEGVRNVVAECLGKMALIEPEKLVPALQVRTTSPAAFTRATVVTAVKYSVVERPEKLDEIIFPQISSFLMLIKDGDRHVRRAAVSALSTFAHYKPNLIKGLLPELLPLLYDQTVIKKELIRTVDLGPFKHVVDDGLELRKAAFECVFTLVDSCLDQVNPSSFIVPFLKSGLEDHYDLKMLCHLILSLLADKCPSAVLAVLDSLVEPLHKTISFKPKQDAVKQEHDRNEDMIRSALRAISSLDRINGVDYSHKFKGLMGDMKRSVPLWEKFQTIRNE
# Variants of: B1
# Details: with cand1_arath CAND1, Q8L5Y6
row,Variant,effect of a mutation on the interaction
1,K682R,increasing interaction strength
